Experimental findings from paper PMC7728782, “Heat induces end to end repetitive association in P. furiosusL-asparaginase which enables its thermophilic property” (Scientific Reports, 2020) are described below.

Data set [1] addresses conjoined PfA (cPfA): N-PfA and C-PfA halves of P. furiosus L-asparaginase without the 19-residue linker (Pyrococcus furiosus) (UniProt Q8TZE8). As to the kind of experiment: SAXS; protein at 6 mg/mL in a thermostated quartz capillary, 40 °C; association state from I0 of the Guinier analysis against lysozyme.
The target is the same in data set [2]. Briefly: SAXS; protein at 6 mg/mL in a thermostated quartz capillary, 70 °C; association state from I0 of the Guinier analysis against lysozyme.
Data set [3] shares this target. As to the kind of experiment: SAXS; protein at 6 mg/mL in a thermostated quartz capillary, 50 °C; association state from I0 of the Guinier analysis against lysozyme.
Data set [4] shares this target. As to the kind of experiment: SAXS; protein at 6 mg/mL in a thermostated quartz capillary, 25 °C; association state from I0 of the Guinier analysis against lysozyme.
The target is the same in data set [5]. Briefly: SAXS; protein at 6 mg/mL in a thermostated quartz capillary, 30 °C; association state from I0 of the Guinier analysis against lysozyme.
The target is the same in data set [6]. As to the kind of experiment: SAXS; protein at 6 mg/mL in a thermostated quartz capillary, 60 °C; association state from I0 of the Guinier analysis against lysozyme.
For data set [7] the target is unchanged. Briefly: SAXS; protein at 6 mg/mL in a thermostated quartz capillary, 80 °C; association state from I0 of the Guinier analysis against lysozyme.
Data set [8] deals with defunct cPfA (dcPfA): cPfA truncated beyond D178 of the N-terminal domain (Pyrococcus furiosus) (UniProt Q8TZE8).
Data set [9] concerns the molecule itself. Briefly: SAXS; protein at 6 mg/mL in a thermostated quartz capillary, 25 °C; association state from I0 of the Guinier analysis against lysozyme.
Data set [10] deals with the molecule itself. Briefly: SAXS; protein at 6 mg/mL in a thermostated quartz capillary, 80 °C; association state from I0 of the Guinier analysis against lysozyme.
Data set [11] concerns the molecule itself. Briefly: SAXS; protein at 6 mg/mL in a thermostated quartz capillary, 30 °C; association state from I0 of the Guinier analysis against lysozyme.
Data set [12] concerns the molecule itself. Briefly: SAXS; protein at 6 mg/mL in a thermostated quartz capillary, 40 °C; association state from I0 of the Guinier analysis against lysozyme.
Data set [13] deals with the molecule itself. As to the kind of experiment: SAXS; protein at 6 mg/mL in a thermostated quartz capillary, 50 °C; association state from I0 of the Guinier analysis against lysozyme.
Data set [14] deals with the molecule itself. As to the kind of experiment: crystal structure; cPfA crystallised at 37 °C, 2.36 Å, PDB 5CBP; contacts between symmetry mates.

The term stoichiometry N denotes the number of molecules, sites or subunits per partner or assembly. Take “conjoined PfA (cPfA): N-PfA and C-PfA halves of P. furiosus L-asparaginase without the 19-residue linker (from UniProt Q8TZE8 1-182; Q8TZE8 1-182) (complex)”: the stoichiometry N was 2 in data set [1]; 8 in data set [2]; 2 in [3]; 2 in [4]; 2 in data set [5]; 4 in [6]. In addition, in data set [7], the stoichiometry N was found to be 12.
In data set [8], “defunct cPfA (dcPfA): cPfA truncated beyond D178 of the N-terminal domain (from UniProt Q8TZE8 1-178; Q8TZE8 1-178) (complex)” registered a loss in specific activity of dcPfA relative to cPfA, 45 °C of 38%; a loss in specific activity of dcPfA relative to cPfA, 60 °C of 60%; a loss in specific activity of dcPfA relative to cPfA, 70 °C of 80%; a loss in specific activity of dcPfA relative to cPfA, 80 °C of 90%.

B1: L-V-V-N peptide (terminal short beta-strand of the N-terminal domain of PfA, Leu179-Asn182) (peptide)
peptide: LVVN
Regarding B1, in [8], the specific activity of dcPfA pre-incubated with LVVN peptide (different molar ratios, highest effective 500 µM) against dcPfA alone, 37 °C turned out to be 1.66 fold; the specific activity of dcPfA pre-incubated with LVVN peptide (different molar ratios, highest effective 500 µM) against dcPfA alone, 45 °C was 1.85 fold; the specific activity of dcPfA pre-incubated with LVVN peptide (different molar ratios, highest effective 500 µM) against dcPfA alone, 60 °C worked out at 2.36 fold.

B2: L-asparaginase from Pyrococcus furiosus, full-length wild type (PfA) (enzyme, UniProt Q8TZE8 1-326, looked up)
chain: MKILLIGMGGTIASVKGENGYEASLSVKEVLDIAGIKDCEDCDFLDLKNVDSTLIQPEDWVDLAETLYKNVKKYDGIIVTHGTDTLAYTSSMISFMLRNPPIPIVFTGSMIPATEENSDAPLNLQTAIKFATSGIRGVYVAFNGKVMLGVRTSKVRTMSRDAFESINYPIIAELRGEDLVVNFIPKFNNGEVTLDLRHDPKVLVIKLIPGLSGDIFRAAVELGYRGIVIEGYGAGGIPYRGSDLLQTIEELSKEIPIVMTTQAMYDGVDLTRYKVGRLALRAGVIPAGDMTKEATVTKLMWILGHTNNVEEIKVLMRKNLVGELRD
notes: L-asparaginase of Pyrococcus furiosus, full length, with N-terminal domain, 19-residue linker and C-terminal domain; One protomer; the SAXS rows give the size of the oligomer it forms
For B2, the “stoichiometry N” value is 2 in [9]; 4 in [10]; 2 in [11]; 2 in [12]; 2 in data set [13].

B3: N-PfA, N-terminal domain chain of conjoined PfA (domain or fragment, Pyrococcus furiosus, UniProt Q8TZE8 1-182, looked up)
chain: MKILLIGMGGTIASVKGENGYEASLSVKEVLDIAGIKDCEDCDFLDLKNVDSTLIQPEDWVDLAETLYKNVKKYDGIIVTHGTDTLAYTSSMISFMLRNPPIPIVFTGSMIPATEENSDAPLNLQTAIKFATSGIRGVYVAFNGKVMLGVRTSKVRTMSRDAFESINYPIIAELRGEDLVVN
notes: N-PfA, the N-terminal half of P. furiosus L-asparaginase; ends at residue 182
With B3, in [14], the binding result is “binds”.
